For test [1], the system named is C2C12 cells expressing GFP-MG53. Description: Repair of acute membrane damage: translocation to microelectrode injury site. In kind it is cell-based, murine. Particulars: C2C12 cells; acute membrane damage. Here is the method: To follow the process of intracellular vesicle translocation associated with repair of acute membrane damage, GFP-MG53 fusion protein was expressed in C2C12 myoblast cells (FIG. 21a). […]
Cell culture—The C2C12 murine myoblast cell line used for all studies was purchased from the American Type Culture Collection (Manassas, Va.). Cells were grown in a humidified environment at 37° C. and 5% CO2 in DMEM medium for C2C12 or Ham's F12 medium for CHO cells supplemented with 10% fetal bovine serum, 100 units/ml penicillin and 100 ug/ml streptomycin. In order to induce myotube differentiation, C2C12 myoblasts were grown to confluence and the medium was switched to DMEM containing 2% horse serum, penicillin (100 U/ml), streptomycin (100 μg/ml). For transient transfections, C2C12 myoblasts or CHO cells were plated at 70% confluence in glass-bottom dishes. After 24 hours, cells were transfected with plasmids described above using GeneJammer reagent (Stratagene). Cells were visualized by live cell confocal imaging at 24-48 hours after transfection or at times indicated for individual experiments. In some experiments, C2C12 myoblasts were allowed to differentiate into myotubes for the indicated time before observation.
Live cell imaging—To monitor intracellular trafficking of GFP-MG53 either CHO or C2C12 cells were cultured in glass-bottom dishes (Bioptechs Inc.) and transfected with the plasmids described above. Fluorescence images (512×512) were captured at 3.18 s/frame using a BioRad 2100 Radiance laser scanning confocal microscope with a 63×1.3NA oil immersion objective.

Test [2] has as its system mg53−/− myotubes. The test is described as follows: Membrane repair in transfected mg53−/− myotubes. In kind it is cell-based, mice. The text has this: The entry of FM4-64, a red-shifted variant of FM1-43, was used as an index of membrane repair capacity in mg53−/− myotubes transfected with GFP-MG53 and GFP-C242A. Following UV-bleaching of the green fluorescence, rapid translocation of GFP-MG53 took place at the injury site, whereas GFP-C242A remained static due to its defective oligomerization properties (FIG. 16E, 17A).
Similar defects with GFP-C29L were also observed in C2C12 myotubes (FIG. 18e, middle).

The test system of test [3] is Human gastric adenocarcinoma (AGS) cells. Description: GFP-MG53 translocation after microelectrode or saponin damage, AGS. In kind it is cell-based. Particulars: microelectrode or 0.005% saponin. The text has this: MG53 can translocate to membrane repair sites in gastric cells. Human gastric adenocarcinoma (AGS) cells were transfected with GFP-MG53 and then subjected to mechanical membrane damage by microelectrode needle penetration (top) or treatment with 0.005% saponin to permeabilize the membrane (bottom) (FIG. 45). Translocation of GFP-MG53 to the injury site (arrow) was monitored by live cell confocal microscopy.

Test [4] deals with Mouse primary astrocytes. The test is described as follows: GFP-MG53 translocation after microelectrode or saponin damage, astrocytes. Particulars: microelectrode or 0.005% saponin. In kind it is cell-based. An excerpt:
MG53 can translocate to membrane repair sites in neural cells. Mouse primary astrocytes were transfected with GFP-MG53 and then subjected to mechanical membrane damage by microelectrode needle penetration (top) or treatment with 0.005% saponin to permeabilize the membrane (bottom) (FIG. 46). Translocation of GFP-MG53 to the injury site (arrow) was monitored by live cell confocal microscopy.

The subject of test [5] is Human C38 airway epithelial cells. Description: GFP-MG53 translocation after microelectrode or saponin damage, C38. Particulars: microelectrode or 0.005% saponin. It counts as cell-based. An excerpt: MG53 can translocate to membrane repair sites in airway epithelial cells. Human C38 airway epithelial cells were transfected with GFP-MG53 and then subjected to mechanical membrane damage by microelectrode needle penetration (top) or treatment with 0.005% saponin to permeabilize the membrane (bottom) (FIG. 47). Translocation of GFP-MG53 to the injury site (arrow) was monitored by live cell confocal microscopy.

In test [6] the test system is Mouse leukaemic monocyte macrophage (RAW 264.7) cells. The test is described as follows: GFP-MG53 translocation after microelectrode or saponin damage, RAW 264.7. Particulars: microelectrode or 0.005% saponin. It counts as cell-based. The text has this:
MG53 can translocate to membrane repair sites in immune cells. Mouse leukaemic monocyte macrophage (RAW 264.7) cells were transfected with GFP-MG53 and then subjected to mechanical membrane damage by microelectrode needle penetration (top) or treatment with 0.005% saponin to permeabilize the membrane (bottom) (FIG. 49). Translocation of GFP-MG53 to the injury site (arrow) was monitored by live cell confocal microscopy.

Test [7] relates to human embryonic palatal mesenchymal (HEPM) dental cells. The test is described as follows: GFP-MG53 translocation after microelectrode or saponin damage, HEPM. It counts as cell-based. Particulars: microelectrode or saponin detergent. The text has this: (§1) MG53 can patch the plasma membrane in many different human cell types and prevent cell death. To test if exogenous MG53 can recapitulate membrane resealing function in non-muscle cell types, we used either adenovirus or liposome-based transfection methods to express GFP-MG53 in a number of different cell types. In all cell types tested, MG53 performed in a similar fashion as that seen in muscle cells. Here we illustrate these effects in immortalized human cell lines, including HEK293 (not shown) and human embryonic palatal mesenchymal (HEPM) dental cells (FIG. 43), as well as primary cultures of human keratinocytes (FIG. 42). […] The function of MG53 appears to be essential to allow membrane patching and survival of muscle cells following injury.

In test [8] the test system is primary cultures of human keratinocytes. The test is described as follows: GFP-MG53 translocation after microelectrode or saponin damage, keratinocytes. Particulars: microelectrode or saponin detergent. It counts as cell-based.
Text: as §1

B1: WT: wild type MG53 as GFP fusion protein expressed in cells (protein)
chain: MSAAPGLLRQELSCPLCLQLFDAPVTAECGHSFCRACLIRVAGEPAADGTVACPCCQAPTRPQALSTNLQLSRLVEGLAQVPQGHCEEHLDPLSIYCEQDRTLVCGVCASLGSHRGHRLLPAAEAQARLKTQLPQQKMQLQEACMRKEKTVAVLEHQLVEVEETVRQFRGAVGEQLGKMRMFLAALESSLDREAERVRGDAGVALRRELSSLNSYLEQLRQMEKVLEEVADKPQTEFLMKFCLVTSRLQKILSESPPPARLDIQLPVISDDFKFQVWKKMFRALMPALEELTFDPSSAHPSLVVSSSGRRVECSDQKAPPAGEDTRQFDKAVAVVAQQLLSQGEHYWEVEVGDKPRWALGVMAADASRRGRLHAVPSQGLWLLGLRDGKILEAHVEAKEPRALRTPERPPARIGLYLSFADGVLAFYDASNPDVLTPIFSFHERLPGPVYPIFDVCWHDKGKNAQPLLLVGPEQEQA
modifications: left off: large carriers
notes: wild type MG53 as GFP fusion protein expressed in cells
As for B1, the “translocation to injury site and membrane repair function of GFP fusion protein” value in test [1] is on record as “rapid accumulation”. Moreover, in test [2] (primary cultured mg53−/− myotubes), the “translocation to the plasma membrane following injury” value was “could translocate to the plasma membrane following injury”. Also, the “entry of FM4-64 (membrane repair capacity)” value in test [2] (transfected mg53−/− myotubes, UV injury) is listed as “Significantly less entry of FM4-64”. Further, the “translocation after cell membrane damage” value in test [3], in test [4], in test [5] and in test [6] was “translocation of MG53 to the plasma membrane” each time. The “translocation after membrane damage” value in test [7] and in test [8] was “effectively translocates to the plasma membrane” each time.

The record behind these values is patent publication US9458465B2, “Compositions and methods to modulate cell membrane resealing” (RUTGERS, THE STATE UNIVERSITY OF NEW JERSEY, priority 2007, dated 2016).
